Experiment [1] concerns the target IL-17RA and IL-17RC co-expressed on 293F-IL-17RA-IL-17Rc-ACT1-NFκB-Luc cells (UniProt Q96F46). The experiment can be described thus: FACS, IL-17A on 293 cells overexpressing IL-17RA and IL-17RC.
For experiment [2], the target named is T1, Human IL-17A重组蛋白 (IL-17A-His) (human, UniProt Q16552 24-155, biotin label in the ELISA of Example 2 (Biotin-IL-17A-His); site not stated). Kind of experiment: cell-based or functional assay.
Experiment [3] deals with T1, Human IL-17A重组蛋白 (IL-17A-His). The experiment can be described thus: ELISA, antibody coated at 2 ug/mL, Biotin-IL-17A-His titrated from 10 ug/mL (5-fold, 7 points), HRP-streptavidin. For orientation: In an ELISA, binding on a coated surface is turned into a signal by an enzyme label.

Here are results for five molecules from CN117843801A (BEILAI PHARMACEUTICAL CO LTD, dated 2024).

A word on the EC50: it is the concentration giving half of the maximal effect. A low value points to greater potency.

T1 sequence (Q16552 other isoform, or with tags, fused parts or gaps limits assumed): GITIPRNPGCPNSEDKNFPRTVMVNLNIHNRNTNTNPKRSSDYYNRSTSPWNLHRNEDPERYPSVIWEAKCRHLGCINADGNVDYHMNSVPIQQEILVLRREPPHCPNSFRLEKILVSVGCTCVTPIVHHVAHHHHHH

“Human IL-17A重组蛋白 (IL-17A-His) (from UniProt Q16552 24-155) (ligand)”: in experiment [1], the 阳性率 was over 90%.

B1: Ixekizumab (antibody, human IgG4 S228P, kappa, V domains shown)
VH: QVQLVQSGAEVKKPGSSVKVSCKASGYSFTDYHIHWVRQAPGQGLEWMGVINPMYGTTDYNQRFKGRVTITADESTSTAYMELSSLRSEDTAVYYCARYDYFTGTGVYWGQGTLVTVSS
VL: DIVMTQTPLSLSVTPGQPASISCRSSRSLVHSRGNTYLHWYLQKPGQSPQLLIYKVSNRFIGVPDRFSGSGSGTDFTLKISRVEAEDVGVYYCSQSTHLPFTFGQGTKLEIKR
notes: Made in house from the variable regions cloned into pcDNA3.4-hIgG4 and pcDNA3.4-hIgKc vectors; positive control; also called 阳性对照抗体Ixekizumab; 对照抗体Ixekizumab
As to B1, the “IC50, 阻断活性 (reporter cells)” value in experiment [2] was 1.36 µg/mL. Besides, the EC50 in experiment [3] was 10.1 µg/mL.

B2: 单域抗体(2)(1-F2) (Fc fusion)
chain: QVQLVESGGGLVQPGGSMRLSCAASTIGLSIYSGAWYRQAAGKQRELVARITRRGVTNYADSVKGRFTISKDNAKNTVSLEMNSLKPEDTAVYYCNVGGEDGYWGQGTQVTVSS
For the molecule B2, the “IC50, 阻断活性 (reporter cells)” value in experiment [2] was determined as 14.2 µg/mL. Besides, the EC50 in experiment [3] is 4.04 µg/mL.

B3: 单域抗体(1)(1-C11) (Fc fusion)
chain: DVQLVESGGGLVQPGGSLRLSCAASESLLRLYAMGWYRQLPGQEREWVAIHTTSDTTNYRDSVKGRFTLSRDVATNTIYLQMTSLKPEDTAVYYCHVTSMRDSQNYWGQGTQVTVSS
Take B3: the “IC50, 阻断活性 (reporter cells)” value in experiment [2] is 18.8 µg/mL. In experiment [3], this molecule registered an EC50 of 30 µg/mL.

B4: 串联纳米抗体C11-1-F2 (Fc fusion)
chain: DVQLVESGGGLVQPGGSLRLSCAASESLLRLYAMGWYRQLPGQEREWVAIHTTSDTTNYRDSVKGRFTLSRDVATNTIYLQMTSLKPEDTAVYYCHVTSMRDSQNYWGQGTQVTVSSGGGGSGGGGSGGGGSQVQLVESGGGLVQPGGSMRLSCAASTIGLSIYSGAWYRQAAGKQRELVARITRRGVTNYADSVKGRFTISKDNAKNTVSLEMNSLKPEDTAVYYCNVGGEDGYWGQGTQVTVSS
With B4, in experiment [2], the “IC50, 阻断活性 (reporter cells)” value came out at 1.16 µg/mL. Further, a half-maximal response in experiment [3] (EC50) required 0.745 µg/mL.
